Assay results published in patent publication US20130102644, “Prophylactic or Ameliorating Agent for Genetic Diseases” (published 2013).

Target: hnRNP A1 (Homo sapiens, UniProt P09651 P09651:1-372)
Assay: EMSA; 100-400 ng protein; same as mutant at low protein, less efficient at 400 ng; 80 mM KCl, pH 7.9, E. coli tRNA, 20 C
Settings: tags: N-terminal GST (GST-pcDNA3), expressed in HEK293T; label: 32P
Description: Human hnRNP A1 cDNA was amplified by PCR. The obtained amplified fragment was inserted to between the BamHI and NotI sites of GST-pcDNA3 to prepare a GST-hnRNP A1 plasmid. The whole sequence of this plasmid was determined to confirm the plasmid to comprise the fragment of interest. HEK293T cells were transfected with this GST-hnRNP A1 plasmid, and the obtained transformed cells were cultured. A whole cell lysate was prepared from the collected transformed cells according to the method described in the document (Methods Mol Biol (2008) 488, 357-365). The GST-hnRNP A1 protein was purified from the whole cell lysate using an anti-GST affinity resin (manufactured by Sigma-Aldrich Corp.), basically as described in the document (The Journal of Biological Chemistry (2002) 277, 7540-7545) except that the resin was washed twice with buffer solution E (20 mM Hepes-KOH (pH 7.9), 1000 mM KCl, 0.2 mM EDTA, 10% glycerol, and 1 mM DTT) before elution from the column. Subsequently, mutant exon 31 RNA or wild-type exon 31 RNA labeled with ³²P was mixed with the GST-hnRNP A1 protein and incubated at 20° C. for 30 minutes. The obtained complex was subjected to gel mobility shift assay. […]
The gel mobility shift assay was basically conducted according to the method described in the document (Nucleic Acids Research (1995) 23, 3638-3641). […] Bands were analyzed by autoradiography. […]

Chain of hnRNP A1 (P09651 whole entry, one chain of several): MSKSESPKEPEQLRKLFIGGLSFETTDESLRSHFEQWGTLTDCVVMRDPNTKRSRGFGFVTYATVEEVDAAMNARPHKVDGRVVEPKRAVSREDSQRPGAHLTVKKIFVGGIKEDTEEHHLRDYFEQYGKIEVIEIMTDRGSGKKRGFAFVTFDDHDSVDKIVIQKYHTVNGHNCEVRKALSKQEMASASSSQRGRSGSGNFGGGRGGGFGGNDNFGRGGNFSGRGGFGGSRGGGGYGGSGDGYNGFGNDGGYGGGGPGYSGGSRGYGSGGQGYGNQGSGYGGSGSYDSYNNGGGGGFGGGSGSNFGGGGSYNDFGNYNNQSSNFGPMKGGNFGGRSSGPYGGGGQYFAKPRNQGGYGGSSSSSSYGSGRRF

B1: dystrophin exon 31 RNA wild-type (ssRNA)
RNA: AAAAUCCAAUCUGAUUUGACAAGUCAUGAGAUCAGUUUAGAAGAAAUGAAGAAACAUAAUCAGGGGAAGGAGGCUGCCCAAAGAGUCCUGUCUCAGAUUGAUGUUGCACAG
B1: binds.
